# Test results published in the DeepSol protein solubility set.
# Experiment: soluble on expression in E. coli; label from the status in PepcDB or PDB records
row,Sequence,soluble on expression in E. coli
1,MYNISFTPDRPLTYHLEDDQSLARLSLVPGRGGLVTEWTVQGQPILYFDRERFQDPSLSVRGGIPILFPICGNLPQDQFNHAGKSYRLKQHGFARDLPWEVIGQQTQDNARLDLRLSHNDATLEAFPFAFELVFSYQLQGHSLRIEQRIANLGDQRMPFSLGFHPYFFCREKLGITLAIPANDYLDQKTGDCHGYDGQLNLTSPELDLAFTQISQPRAHFIDPDRNLKIEVSFSELYQTLVLWTVAGKDYLCLEPLEHHHHHH,not soluble
2,GSHGMRVIIAGFGRFGQITGRLLLSSGVKMVVLDHDPDHIETLRKFGMKVFYGDATRMDLLESAGAAKAEVLINAIDDPQTNLQLTEMVKEHFPHLQIIARARDVDHYIRLRQAGVEKPERETFEGALKTGRLALESLGLGPYEARERADVFRRFNIQMVEEMAMVENDTKARAAVYKRTSAMLSEIITEDREHLSLIQRHGWQGTEEGKHTGNMADEPETKPSSTSGGLVPRGSSGMILIIYAHPYPHHSHANKRMLEQARTLEGVEIRSLYQLYPDFNIDIAAEQEALSRADLIVWQHPMQWYSIPPLLKLWIDKVFSHGWAYGHGGTALHGKHLLWAVTTGGGESHFEIGAHPGFDVLSQPLQATAIYCGLNWLPPFAMHCTFICDDETLEGQARHYKQRLLEWQEAHHG,soluble
3,VLDPLGPGAPVLVAGGRVTGQAVAAVLTRFGATPTVCDDDPVMLRPHAERGLPTVSSSDAVQQITGYALVVASPGFSPATPLLAAAAAAGVPIWGDVELAWRLDAAGCYGPPRSWLVVTGTNGKTTTTSMLHAMLIAGGRRAVLCGNIGSAVLDVLDEPAELLAVELSSFQLHWAPSLRPEAGAVLNIAEDHLDWHATMAEYTAAKARVLTGGVAVAGLDDSRAAALLDGSPAQVRVGFRLGEPAARELGVRDAHLVDRAFSDDLTLLPVASIPVPGPVGVLDALAAAALARSVGVPAGAIADAVTSFRVGRHRAEVVAVADGITYVDDSKATNPHAARASVLAYPRVVWIAGGLLKGASLHAEVAAMASRLVGAVLIGRDRAAVAEALSRHAPDVPVVQVVAGEDTGMPATVEVPVACVLDVAKDDKAGETVGAAVMTAAVAAARRMAQPGDTVLLAPAGASFDQFTGYADRGEAFATAVRAVIR,not soluble
4,MSEDRSSNGHKSWLDKITQAFAHEPRNRQELLELLRDAHDNKLLDSEALSIVEGAIQVADLQVRDIMVPRSQMMSIRSTQTPKEFLPAIIEAAHSRYPVVGESLDDVMGVLLAKDLLPLILHNDERPFDIKELLRPATFVPESKRLNVLLREFRANRNHMAIVIDEYGGVAGLVTIEDVLEQIVGDIEDEHDVEEDSYIKPLPSGDFIVKALTPVDAFNDFFGSEFSDEEFDTVGGLVMSAFGHLPKRNEVVELGEFRFRVLNADSRRVHLLRLSPLQN,soluble
5,QKNPDSYNGAVRENYTWSQDYTDLEVRVPVPKHVVKGKQVSVALSSSSIRVAMLEENGERVLMEGKLTHKINTESSLWSLEPGKCVLVNLSKVGEYWWNAILEGEEPIDID,soluble
6,MGSDKIHHHHHHMDHLPPLRLLVTFEAISRHGSMRDAAQRLNVTQPAVSQALKALEDHVGVALFDRSVRPARLTDAGEMLSRAVREGLGRIAATLEDIRALHAIGERQVTVSCTLGMATYWLMPKLPMFYADYPELTVNVQAPATDLPVLSPGIDVALRYGRGGWREGRTEKLFAEVICPVGAPALVERLLAEGATLAEAPLIHVRNPHNDHWAGWEDYLQARGIQRPRGGGQIFNNYVQAAQAIYDGRGLMLGWRSITGQAERDGALRAWPDGALDLGTSYFVTMPTTPSQDTLLFVDWVRKAAATV,not soluble
7,MGSDKIHHHHHHMKVTFLGHAVVLIEGKKNIIIDPFISGNPVCPVKLEGLPKIDYILVTHGHGDHLGDAVEIAKKNDATVISNYEICHYLGKKGVKTHAMHIGGSYLFDFGRVKMTPAVHGSGILDGDSMIYGGNPSGFLITIEGKKIYHAGDTGLTREMELLAEENVDVAFLPIGGNFVMDVEDAVRAAVMIKPKKVVPMHYGTWELIFADVELFKKKVEEKGVECVILEPGESLEL,not soluble
8,AQKLSATSRILSSSRGPAPDDIADFFGTDRAAQHITLRRLRLGNGRPYAIDNGWYNSEFAPDLLENDVYNSVYSILDRVYGVPVTQAEQTVTAVAADEDTARLLDVTPGAPLLRILRQSLSGDKPVEWCVSLYRTDRYS,not soluble
9,MKQLSGLLGELRQKLCAGFPEQAGIQQLIFPAPGLVGRQLLEWLTAQTHFPQFYWRHRDNHEEAAVCGQTRSFADMKDADDFIQQNPDANGLRIWGLNAFEPVMVFGQLTDNGLVSGKNAQASFLFLPRLEILRRGKKTSLTLNLSSETSLQKDALQAITFIDQLMAARALPVLNARIQHSSHTPGYPQWRNLIQQALNDIEQQKLDKVVLARTTTLTLNKPLSCAAFMAASRQVNHRCYHFMLRFDDRQAFLGSSPERLYLRQQLHLETEALAGTVSNLDSDPQAAVLADWLMHDEKNQRENLLVVDDICQRLQGGVTAVDVMPPEIIRLRKVQHLRRRICAQLSRASDTDCLQRLQPTAAVAGLPREAARQFIAKHELFSRGWYAGSAGYLSLKRTEFSVALRSARVDGQQIHLYAGAGIVAGSDAEQEWQEIDNKSAGLQSLLEHEAQPVKA,not soluble
10,MQGTRVMHIFVLSKRKITMNVDNVKSQMRKGMLEYCIMLLLHKEPAYASDIIQKLKEAQLIVVEGTLYPLLTRLKNDDLLSYEWVESTQGPPRKYYKLTEKGEAFLGELEISWKELNETVNHIASR,not soluble
11,MVPPTINTGKNITTERAVLTLNGLQIKLHKVVGESRDDIVAKMKDLAMDDHKFPRLPGPNPVSIERKDFEKLKQNKYVVSEKTDGIRFMMFFTRVFGFKVCTIIDRAMTVYLLPFKNIPRVLFQGSIFDGELCVDIVEKKFAFVLFDAVVVSGVTVSQMDLASRFFAMKRSLKEFKNVPEDPAILRYKEWIPLEHPTIIKDHLKKANAIYHTDGLIIMSVDEPVIYGRNFNLFKLKPGTHHTIDFIIMSEDGTIGIFDPNLRKNVPVGKLDGYYNKGSIVECGFADGTWKYIQGRSDKNQANDRLTYEKTLLNIEENITIDELLDLFKWE,soluble
12,MSSRPPFGIVKPSKPTGNPSSGSSELDSTAQPPQERGTDLQRASSGSDVHGHPSPGSQSHNLTSAQSGGRNAHKDLHERHVHPSQGYQRHGSKAPAHGHPSSQGARRSQLKLSNFPKLLANLMQDTKATQDFNSKYHSDFKKSKNSLITGESIFKFSHGIINFFFGRTSASCASNQDTLQPTASTMSDGEPEEDKVKLCGNRLEVGVTDNLAGTQRRKEQQQLQGAQAKKQQAPQRVVNRKANHQKLSRKRRYAPYKDDVIGAHGFFNNMR,not soluble
13,AIATDCEWFDMTWGSSASSGYCSQSDSDEHELELFYTARTSLRKSRKCRDKDEQSEVDWRKQDLSVTEIQQKVKEYNAQVNSNLFMVLNRDGSYTGFIKVQFKLARPVSLPPPRSVSSSSISSSCLGWDGGCQERTSFYLPRDTVKHLHISSSTRAREVIQALLNKFTVVDNPAKYSLYERSQRDNQVYLRKLADDECPLFLRLCAGPNEKVLSLVLKENETGEVNWDAFSFPELQNFLRILQREEEDHVRQIIRRYTLARDKMKEAMKNFSTPG,soluble
14,QLNPYLRLKVRRDHIIDDALVRLEMIAMENPADLKKQLYVEFEGEQGVDEGGVSKEFFQLVVEEIFNPDIGMFTYDESTKLFWFNPSSFETEGQFTLIGIVLGLAIYNNCILDVHFPMVVYRKLMGKKGTFRDLGDSHPVLYQSLKDLLEYEGNVEDDMMITFQISQTDLFGNPMMYDLKENGDKIPITNENRKEFVNLYSDYILNKSVEKQFKAFRRGFHMVTNESPLKYLFRPEEIELLICGSRNLDFQALEETTEYDGGYTRDSVLIREFWEIVHSFTDEQKRLFLQFTTGTDRAPVGGLGKLKMIIAKNGPDTERLPTSHTCFNVLLLPEYSSKEKLKERLLKAITYAKGFGML,soluble
15,MAHHHHHHMRARRSCKFAEYLSTYAILEHIGIHPTTLIEKRDAAVGVGVYVRDACDAGTALLAVPSKRFCTTSVLSRVGLKTSFCSPWRADSEVPSTAFAGPTCDVQGGILSFLTGSTQWPELAWRLALEQHRSVSPLWGWLQSLPSVEELADRRDVAERQCRVHHTMLLPYYLKGRQRIREETVAAYSQLRAQNILPCFDRFAWAVDVVLSRGLLLPTAWPTAGGVFTNSTTDGEHEEEDSDPLPHTSLECGVVPFLDLVNAPDDVGRVVNADIEIATSLETLPKFLTDELAADATARGRGGDDLAEVKRLLETHYYLCLTLRKPLRASEEVILEWQVPVLTTEVLTAAEDAIVSRFLKYMF,not soluble
16,MLLMMVVGLTAGVLAGCANPKDTTEEFLTAIQKGDIEKARTFVESDKEFNKLNEKTDDAEAKAMLSAITKNFKFEKLEEVSKKDDKAEVKVKITSADLSVAVTKAVGEVMPMAFASAFSEDKEQSEKAIEKTMTSTIIKNLTDKDAAMATREVTLNLKKDKDGDYKIVADDNLKEVLFANAKSLEKMFGGK,not soluble
17,CHQDCPQMSPQPEMDRFASEFGEQDVAVDGQAPENALENDEPKYAPQVISEQNAFLMREMMYSNIWGGGNWREGTGWNGTGWRAQKLERRDIGGKTGTTNDSKDA,not soluble
18,KMGPEYTKMQNLVKSEGLHTVCQEAGCPNIYECWEDREATFLIGGDQCTRRCDFCQIDTGKPEALDRDEPRRVGESVVTMDLNYATITGVARDDLEDGGAWLYAETVRQIHAQTAGREAGRTKVELLAPDFNAEPDQLAEVFSARPEVFAHNVETVPRIFKRIRPGFRYERSLKVITEARDYGLVTKSNLILGMGETREEVSEALRQLHDAGCELITITQYLRPSVRHHPVERWVKPHEFVELKEEAEEIGFSGVMSGPLVRSSYRAGRLYQMAMELRQSAAPQGGAQVASQAV,not soluble
19,GMRNMQEKGVSEKEILEELKKYRSLDLKYEDGNIFGSMCSNVLPITRKIVDIFLETNLGDPGLFKGTKLLEEKAVALLGSLLNNKDAYGHIVSGGTEANLMALRCIKNIWREKRRKGLSKNEHPKIIVPITAHFSFEKGREMMDLEYIYAPIKEDYTIDEKFVKDAVEDYDVDGIIGIAGTTELGTIDNIEELSKIAKENNIYIHVDAAFGGLVIPFLDDKYKKKGVNYKFDFSLGVDSITIDPHKMGHCPIPSGGILFKDIGYKRYLDVDAPYLTETRQATILGTRVGFGGACTYAVLRYLGREGQRKIVNECMENTLYLYKKLKENNFKPVIEPILNIVAIEDEDYKEVCKKLRDRGIYVSVCNCVKALRIVVMPHIKREHIDNFIEILNSIKRD,soluble
20,SLSETLYTGISQLATPRPGPQRGAAMGDLHIIEDAALLVRGGVIQWVGPRAAAPTATHVHDLGGRAVVPGLVDPHTHAVWAGDRLSDWEAKLQGATYEEILARGGGIRSTMRATAAADVAELVALARPRLASLRASGATTTEVKSGYGLDFDAELRMLRAVRELQAEFELRPTLLIHVPPQEGRAEYVVGVCAELIPQVAREGLAEALDVFCEKEAFSVEETRTMFAAAQAHGLRVKLHADQFHAIGGTELACEVGALSVDHLEASGAAQIAALAASETVATILPGVTLHLGLPAAPGRQLIDSGAIVAIGTDLNPGSSPLFSTQLALALAVRLCLLTPAEALSACTVNAAYALGLSDRGSLSAGQRADFLVLNGQDWREVAYTLGGNAVAEVYLAGAQL,soluble
21,MGSDKIHHHHHHMLDENEDIHPLFAGAPATTEFKKLRKRIVRYTREAIEQYGMVERRADGSTPKWLVCLSGGKDSYTLLAVLYELKWRGLLPVDLLACNLDQGQPGFPSTVLPEFLDRMGVPNRIEYQDTYSVVVDKVPQGRTYCALCSRLRRGNLYRIAREEGCSAVVLGHHRDDILETFFMNLFHGGRLATMPPKLVNEEGDLFVFRPLAHVAEADCEKFARAMNYPIIPCDLCGSQDGLQRQQVKQILDGWEKNRPGRRQVMFRALMNARPSHLLDPKLFDFQGLELGSREKGENFGEIPLLR,not soluble
